Molecular target: OFA alone (control OFA construct, not fused to a chemoattractant) (murine, UniProt P14206 1-295)
Test: ligand binding-internalization assay on iDC, flow cytometry (data not shown)
Protocol: The ligand binding-internalization assays were performed with iDC or splenocytes (1×10⁵) blocked with mouse serum in PBS containing 2% BSA. Fusion proteins (10-50 μg/ml) were incubated in complete medium for Ih at 37° C. or at 4° C. To detect bound proteins, the cells were incubated with anti-c-myc mAb or isotype-matched, purified mouse IgG1, followed with α-mouse Ig-FITC mAb incubation (Jackson ImmunoResearch Laboratory, Bar Harbor, Me.) for 20 min each, and then fixed with 1% paraformaldehyde. The binding-internalization was assessed via flow cytometry on a FACScan (Becton Dickinson, Franklin Lakes, N.J.) using CellQuest software.

B1: CCR6 expressed on murine BM iDC (receptor)
chain: MNSTESYFGTDDYDNTEYYSIPPDHGPCSLEEVRNFTKVFVPIAYSLICVFGLLGNIMVVMTFAFYKKARSMTDVYLLNMAITDILFVLTLPFWAVTHATNTWVFSDALCKLMKGTYAVNFNCGMLLLACISMDRYIAIVQATKSFRVRSRTLTHSKVICVAVWFISIIISSPTFIFNKKYELQDRDVCEPRYRSVSEPITWKLLGMGLELFFGFFTPLLFMVFCYLFIIKTLVQAQNSKRHRAIRVVIAVVLVFLACQIPHNMVLLVTAVNTGKVGRSCSTEKVLAYTRNVAEVLAFLHCCLNPVLYAFIGQKFRNYFMKIMKDVWCMRRKNKMPGFLCARVYSESYISRQTSETVENDNASSFTM
notes: whole, on cells
binding result: no binding

Reference: patent US20090068234A1 (US Dept. of Health and Human Services, published 2009)
